Molecular target: T1, RepA hexameric replicative helicase (plasmid RSF1010, UniProt P20356 1-279)
T1 sequence: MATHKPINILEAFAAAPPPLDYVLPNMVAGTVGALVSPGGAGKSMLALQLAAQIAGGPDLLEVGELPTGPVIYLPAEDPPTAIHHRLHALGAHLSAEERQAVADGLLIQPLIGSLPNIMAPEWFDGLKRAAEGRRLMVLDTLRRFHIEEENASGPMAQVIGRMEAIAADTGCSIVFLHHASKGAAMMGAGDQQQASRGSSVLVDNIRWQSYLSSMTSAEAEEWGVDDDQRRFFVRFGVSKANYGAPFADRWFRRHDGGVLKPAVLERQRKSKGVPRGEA
Experiment: stopped-flow fluorescence anisotropy

B1: dT(pT)19-Fl-3' (21-mer) (ssDNA)
DNA: TTTTTTTTTTTTTTTTTTTT
modifications: 3' amino six-carbon linker residue
  binding result: binds

Source: publication PMC3070410
